The record followed here is article PMC4265319.

Series [1] addresses T1, KdpE (Staphylococcus aureus) (UniProt Q2FWH6).
T1 sequence: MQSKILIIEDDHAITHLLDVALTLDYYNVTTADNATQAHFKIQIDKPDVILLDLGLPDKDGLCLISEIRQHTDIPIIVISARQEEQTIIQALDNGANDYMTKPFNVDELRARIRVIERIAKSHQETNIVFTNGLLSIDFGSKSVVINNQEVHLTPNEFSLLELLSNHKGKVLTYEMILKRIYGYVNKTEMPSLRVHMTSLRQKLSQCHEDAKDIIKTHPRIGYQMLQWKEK
Kind of series: EMSA. The following applies: EMSA 25 C, 20 min, 20 ul, 1x binding buffer, 2.5% glycerol, 50 ng/ml poly(dI-dC), 0.05% NP-40; CymR/KdpE buffer: 20 mM Tris-HCl pH 7.5, 10 mM MgCl2, 100 mM …. In general terms: In EMSA bound probe runs differently from free probe, usually more slowly.

In series [2] the target is T2, LacR (Staphylococcus aureus) (UniProt Q5HE08).
T2 sequence: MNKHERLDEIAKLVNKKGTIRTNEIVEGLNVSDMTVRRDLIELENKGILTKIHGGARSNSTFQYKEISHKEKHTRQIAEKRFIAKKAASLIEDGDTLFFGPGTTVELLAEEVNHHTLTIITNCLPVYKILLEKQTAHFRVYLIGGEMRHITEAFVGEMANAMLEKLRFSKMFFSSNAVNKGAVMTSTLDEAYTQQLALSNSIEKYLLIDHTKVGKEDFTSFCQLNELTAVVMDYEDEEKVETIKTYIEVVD
Kind of series: EMSA. The settings on record: EMSA 25 C, 20 min, 20 ul, 1x binding buffer, 2.5% glycerol, 50 ng/ml poly(dI-dC), 0.05% NP-40; CymR/KdpE buffer: 20 mM Tris-HCl pH 7.5, 10 mM MgCl2, 100 mM ….

“GACATAACCTTCACCTCGATAGCAATATCATAATATTCTTCACAATTAAATGCTATAAAATTTATTTCTGCATACACATCTTAATGATTTCTTAATAACTAAGTTTGAAAATTAATATTTCTCTCATAAACAAGTTGTTACGATGTTGTTGTGTTGTAAGGAGGTTATGGCAATGCTCATCGTTTTATTACTGGTAGTTATTGCATTAGTTTTGTATTTATTTTATGCCTTAATTCGTAGTGAAAAATTTTAGAAATATATTAAGTGAGGGTTATCATGG (double strand) [kdpFABC promoter]”: the binding entry in series [1] is given as “binds”.
Consider “GTAATCCATTGTTACCTCCCGATTACAAATTTTGTTCTATCTACTATTTAGCAAAGTAATAATACATCATATCACATTAAATTAATTACTTATGTCTTATATTTAACACTTAATTTAGCGATTACGCAAATGAATGATTTTTCTAAATATTTTATTCTAACTTTATCCGGAAATATTTGTTATACGTATAACTTGGAGAATGACTACTTGAAATTTAATGACGTATACAACAAACACCAC (double strand) [sigS promoter]”, for which the results for the binding result in series [1] and in series [2] were “binds” and “no binding”, respectively.
